Where two headings read alike, the source gives them in different places.
How the values were obtained:
[1] = molecular target: Zif268 finger 2 variant LRHN finger 2 alpha-helix variant LRHN (full helix only in FIG. 1D) (Mus musculus) (UniProt P08046); assay: ELONA; conditions: [none]; apparent Kd, phage ELISA, PBS/Zn, RT
[2] = molecular target: Zif268 finger 2 variant KASN finger 2 alpha-helix variant KASN (full helix only in FIG. 1D) (Mus musculus) (UniProt P08046); assay: ELONA; conditions: [none]; apparent Kd, phage ELISA, PBS/Zn, RT
[3] = molecular target: Zif268 finger 2 variant KASN finger 2 alpha-helix variant KASN (full helix only in FIG. 1D) (Mus musculus) (UniProt P08046); conditions: [none]
[4] = molecular target: Zif268 finger 2 variant REDV finger 2 alpha-helix variant REDV (full helix only in FIG. 1D) (Mus musculus) (UniProt P08046); assay: ELONA; conditions: [none]; apparent Kd, phage ELISA, PBS/Zn, RT
[5] = molecular target: Zif268 finger 2 variant RGPD finger 2 alpha-helix variant RGPD (full helix only in FIG. 1D) (Mus musculus) (UniProt P08046); assay: ELONA; conditions: [none]; apparent Kd, phage ELISA, PBS/Zn, RT
[6] = molecular target: Zif268 finger 2 variant REDV finger 2 alpha-helix variant REDV (full helix only in FIG. 1D) (Mus musculus) (UniProt P08046); conditions: [none]
[7] = molecular target: Zif268 finger 2 variant RGPD finger 2 alpha-helix variant RGPD (full helix only in FIG. 1D) (Mus musculus) (UniProt P08046); conditions: [none]
[8] = molecular target: Zif268 finger 2 variant LRHN finger 2 alpha-helix variant LRHN (full helix only in FIG. 1D) (Mus musculus) (UniProt P08046); conditions: [none]
[9] = molecular target: Zif268 wildtype (three zinc fingers, phage displayed) (Mus musculus) (UniProt P08046); assay: ELONA; conditions: apparent non-equilibrium Kd, phage ELISA, all values scaled to this one (3.0 nM); PBS/Zn, milk, Tween 20, salmon testes DNA, RT
[10] = apparent Kd interpolated from microarray signal 0.122
[11] = apparent Kd interpolated from microarray signal 0.063

TATATAGCGAATGCGTATATATCAAGTCAATCGGTCC (double strand) [Zif268 site AAT]
Kd [1]: 110 nM | Kd [2]: 250 nM

TATATAGCGGACGCGTATATATCAAGTCAATCGGTCC (double strand) [Zif268 site GAC]
Kd ([3]; apparent Kd interpolated from microarray signal 0.652): 1300 nM

TATATAGCGATTGCGTATATATCAAGTCAATCGGTCC (double strand) [Zif268 site ATT]
Kd [1]: 240 nM | Kd ([3]; apparent Kd interpolated from microarray signal 0.942): 270 nM

TATATAGCGGCGGCGTATATATCAAGTCAATCGGTCC (double strand) [Zif268 site GCG]
Kd [4]: 11 nM | Kd [5]: 17 nM

TATATAGCGGGCGCGTATATATCAAGTCAATCGGTCC (double strand) [Zif268 site GGC]
Kd ([3]; apparent Kd interpolated from microarray signal 0.636): 1400 nM

TATATAGCGTATGCGTATATATCAAGTCAATCGGTCC (double strand) [Zif268 site TAT]
Kd [1]: 6.3 nM | Kd [2]: 270 nM

TATATAGCGATGGCGTATATATCAAGTCAATCGGTCC (double strand) [Zif268 site ATG]
Kd ([6]; apparent Kd interpolated from microarray signal 0.069): 1600 nM | Kd ([7]; apparent Kd interpolated from microarray signal 0.136): 720 nM

TATATAGCGCGTGCGTATATATCAAGTCAATCGGTCC (double strand) [Zif268 site CGT]
Kd ([8]; apparent Kd interpolated from microarray signal 0.330): 170 nM | Kd ([3]; apparent Kd interpolated from microarray signal 0.848): 330 nM

TATATAGCGCCGGCGTATATATCAAGTCAATCGGTCC (double strand) [Zif268 site CCG]
Kd [4]: 880 nM | Kd [5]: 250 nM

TATATAGCGCCTGCGTATATATCAAGTCAATCGGTCC (double strand) [Zif268 site CCT]
Kd ([8]; apparent Kd interpolated from microarray signal 0.298): 200 nM | Kd ([3]; apparent Kd interpolated from microarray signal 0.974): 250 nM

TATATAGCGGCCGCGTATATATCAAGTCAATCGGTCC (double strand) [Zif268 site GCC]
Kd [5]: 600 nM | Kd ([6]; apparent Kd interpolated from microarray signal 0.084): 1500 nM

TATATAGCGCATGCGTATATATCAAGTCAATCGGTCC (double strand) [Zif268 site CAT]
Kd [1]: 120 nM

TATATAGCGGGTGCGTATATATCAAGTCAATCGGTCC (double strand) [Zif268 site GGT]
Kd ([8]; apparent Kd interpolated from microarray signal 0.238): 260 nM | Kd ([3]; apparent Kd interpolated from microarray signal 0.616): 1600 nM

TATATAGCGCTCGCGTATATATCAAGTCAATCGGTCC (double strand) [Zif268 site CTC]
Kd ([6]; apparent Kd interpolated from microarray signal 0.058): 1800 nM | Kd [7, 10]: 760 nM

TATATAGCGTACGCGTATATATCAAGTCAATCGGTCC (double strand) [Zif268 site TAC]
Kd ([8]; apparent Kd interpolated from microarray signal 0.329): 170 nM

TATATAGCGACGGCGTATATATCAAGTCAATCGGTCC (double strand) [Zif268 site ACG]
Kd [6, 11]: 1700 nM | Kd ([7]; apparent Kd interpolated from microarray signal 0.143): 690 nM

TATATAGCGGAGGCGTATATATCAAGTCAATCGGTCC (double strand) [Zif268 site GAG]
Kd ([6]; apparent Kd interpolated from microarray signal 0.120): 690 nM | Kd ([7]; apparent Kd interpolated from microarray signal 0.151): 670 nM

TATATAGCGGATGCGTATATATCAAGTCAATCGGTCC (double strand) [Zif268 site GAT]
Kd ([8]; apparent Kd interpolated from microarray signal 0.500): 72 nM

TATATAGCGGAAGCGTATATATCAAGTCAATCGGTCC (double strand) [Zif268 site GAA]
Kd ([3]; apparent Kd interpolated from microarray signal 0.697): 1000 nM

TATATAGCGTGGGCGTATATATCAAGTCAATCGGTCC (double strand) [Zif268 site TGG]
Kd [9]: 3 nM

TATATAGCGCCCGCGTATATATCAAGTCAATCGGTCC (double strand) [Zif268 site CCC]
Kd [6, 11]: 1700 nM | Kd ([7]; apparent Kd interpolated from microarray signal 0.119): 770 nM

TATATAGCGGCAGCGTATATATCAAGTCAATCGGTCC (double strand) [Zif268 site GCA]
Kd ([6]; apparent Kd interpolated from microarray signal 0.108): 1300 nM | Kd ([7]; apparent Kd interpolated from microarray signal 0.216): 510 nM

TATATAGCGCAGGCGTATATATCAAGTCAATCGGTCC (double strand) [Zif268 site CAG]
Kd ([6]; apparent Kd interpolated from microarray signal 0.056): 1800 nM | Kd ([7]; apparent Kd interpolated from microarray signal 0.105): 820 nM

TATATAGCGGTGGCGTATATATCAAGTCAATCGGTCC (double strand) [Zif268 site GTG]
Kd [4]: 11 nM | Kd ([7]; apparent Kd interpolated from microarray signal 0.175): 610 nM

TATATAGCGGGGGCGTATATATCAAGTCAATCGGTCC (double strand) [Zif268 site GGG]
Kd [6, 10]: 1100 nM | Kd ([7]; apparent Kd interpolated from microarray signal 0.118): 770 nM | Kd ([3]; apparent Kd interpolated from microarray signal 0.612): 1700 nM

TATATAGCGTAGGCGTATATATCAAGTCAATCGGTCC (double strand) [Zif268 site TAG]
Kd [1]: 110 nM | Kd [2]: 390 nM

TATATAGCGCGCGCGTATATATCAAGTCAATCGGTCC (double strand) [Zif268 site CGC]
Kd ([3]; apparent Kd interpolated from microarray signal 0.774): 390 nM

TATATAGCGACTGCGTATATATCAAGTCAATCGGTCC (double strand) [Zif268 site ACT]
Kd ([8]; apparent Kd interpolated from microarray signal 0.342): 160 nM | Kd ([3]; apparent Kd interpolated from microarray signal 0.949): 260 nM

TATATAGCGTCTGCGTATATATCAAGTCAATCGGTCC (double strand) [Zif268 site TCT]
Kd ([6]; apparent Kd interpolated from microarray signal 0.083): 1500 nM | Kd ([7]; apparent Kd interpolated from microarray signal 0.146): 690 nM

TATATAGCGAGTGCGTATATATCAAGTCAATCGGTCC (double strand) [Zif268 site AGT]
Kd ([8]; apparent Kd interpolated from microarray signal 0.449): 93 nM | Kd ([3]; apparent Kd interpolated from microarray signal 0.862): 320 nM

TATATAGCGTGTGCGTATATATCAAGTCAATCGGTCC (double strand) [Zif268 site TGT]
Kd ([8]; apparent Kd interpolated from microarray signal 0.384): 130 nM | Kd ([3]; apparent Kd interpolated from microarray signal 0.856): 320 nM

TATATAGCGGCTGCGTATATATCAAGTCAATCGGTCC (double strand) [Zif268 site GCT]
Kd ([6]; apparent Kd interpolated from microarray signal 0.077): 1600 nM | Kd ([7]; apparent Kd interpolated from microarray signal 0.406): 220 nM

TATATAGCGCGGGCGTATATATCAAGTCAATCGGTCC (double strand) [Zif268 site CGG]
Kd [2]: 1460 nM

Reference: patent publication US20040203002
